Results taken from paper PMC8592984 (2021).
Where two headings read alike, the source gives them in different places.

How the values were obtained:
Test in all cases: SPR
Tau 441 P301S = Tau 441 P301S (human, UniProt P10636-8 1-441, P301S)
[1] = molecular target: T1, human Tau 441 full-length protein (4R tau), SPR construct (human, UniProt P10636-8 1-441)
Tau 410 P179A/P216A = Tau 410 P179A/P216A (human, UniProt P10636-5 1-410, P179A | P216A)
[2] = molecular target: T1, human Tau 441 full-length protein (4R …); remark: listed apart in the source
Tau 410 P216A = Tau 410 P216A (human, UniProt P10636-5 1-410, P216A)
Chain of Tau 410 P216A (P10636 other isoform, or with tags, fused parts or gaps P216A | P216A): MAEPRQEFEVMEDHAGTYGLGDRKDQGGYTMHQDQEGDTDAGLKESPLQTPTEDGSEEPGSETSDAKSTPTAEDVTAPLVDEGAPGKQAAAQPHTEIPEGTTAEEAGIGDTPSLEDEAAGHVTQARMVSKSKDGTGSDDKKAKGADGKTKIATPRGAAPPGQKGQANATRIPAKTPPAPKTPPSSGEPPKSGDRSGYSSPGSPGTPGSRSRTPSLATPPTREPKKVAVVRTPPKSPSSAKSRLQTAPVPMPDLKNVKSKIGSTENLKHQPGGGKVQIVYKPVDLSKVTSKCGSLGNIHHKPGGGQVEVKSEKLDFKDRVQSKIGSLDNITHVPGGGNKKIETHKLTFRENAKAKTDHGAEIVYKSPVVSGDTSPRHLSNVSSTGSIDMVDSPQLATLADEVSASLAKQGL

Tau 410 P179A = Tau 410 P179A (human, UniProt P10636-5 1-410, P179A)
Chain of Tau 410 P179A (P10636 other isoform, or with tags, fused parts or gaps P179A | P179A): as the sequence (P10636 other isoform, or with tags, fused parts or gaps P216A | P216A) above, with P179A, A216P counted along it

[3] = molecular target: human Tau 410 full-length protein (3R tau), SPR construct (human, UniProt P10636-5 1-410)
Chain of human Tau 410 full-length protein (3R tau), SPR construct (P10636 other isoform, or with tags, fused parts or gaps): as the sequence (P10636 other isoform, or with tags, fused parts or gaps P216A | P216A) above, with A216P counted along it

T1 sequence (P10636 other isoform, or with tags, fused parts or gaps): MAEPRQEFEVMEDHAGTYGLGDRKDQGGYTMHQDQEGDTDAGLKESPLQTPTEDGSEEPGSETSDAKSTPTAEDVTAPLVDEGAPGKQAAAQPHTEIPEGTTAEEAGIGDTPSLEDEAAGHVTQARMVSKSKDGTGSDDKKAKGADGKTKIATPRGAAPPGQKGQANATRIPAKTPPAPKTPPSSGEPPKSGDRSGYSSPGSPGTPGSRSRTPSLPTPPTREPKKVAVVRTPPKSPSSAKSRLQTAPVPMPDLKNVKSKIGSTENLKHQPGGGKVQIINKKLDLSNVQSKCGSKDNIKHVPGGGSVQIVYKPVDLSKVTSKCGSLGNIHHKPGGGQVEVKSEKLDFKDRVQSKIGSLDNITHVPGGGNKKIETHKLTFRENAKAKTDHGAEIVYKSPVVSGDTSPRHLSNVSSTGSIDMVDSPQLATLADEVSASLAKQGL
Chain of Tau 441 P301S (P10636 other isoform, or with tags, fused parts or gaps P301S | P301S): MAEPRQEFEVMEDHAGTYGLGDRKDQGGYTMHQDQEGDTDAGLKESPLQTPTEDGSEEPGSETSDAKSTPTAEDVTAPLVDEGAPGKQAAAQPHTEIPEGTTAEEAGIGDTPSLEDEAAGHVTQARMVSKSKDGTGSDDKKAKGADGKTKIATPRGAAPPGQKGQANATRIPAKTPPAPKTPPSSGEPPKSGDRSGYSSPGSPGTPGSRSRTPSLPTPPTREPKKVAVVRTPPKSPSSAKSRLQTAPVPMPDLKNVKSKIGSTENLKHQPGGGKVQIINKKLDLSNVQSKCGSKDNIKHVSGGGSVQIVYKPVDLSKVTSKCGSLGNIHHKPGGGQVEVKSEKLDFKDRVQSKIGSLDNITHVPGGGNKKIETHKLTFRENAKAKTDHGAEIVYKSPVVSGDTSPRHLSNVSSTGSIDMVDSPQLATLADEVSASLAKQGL
Chain of Tau 410 P179A/P216A (P10636 other isoform, or with tags, fused parts or gaps P179A | P216A | P179A P216A): as the sequence (P10636 other isoform, or with tags, fused parts or gaps P216A | P216A) above, with P179A counted along it

| Kd (Tau 441 P301S) [nM] | Kd [1] [nM] | Kd (Tau 410 P179A/P216A) [µM] | Kd [2] [nM] | Kd (Tau 410 P216A) [nM] | Kd (Tau 410 P179A) [µM] | Kd [3] [nM] | Binder |
| --- | --- | --- | --- | --- | --- | --- | --- |
| 51.5 | 42.1 | 26 | 12.2 | 314 | 4.82 | 43.3 | human PQBP1 full-length form (PQBP1-FL) (natural protein) MPLPVALQTRLAKRGILKHLEPEPEEEIIAEDYDDDPVDYEATRLEGLPPSWYKVFDPSCGLPYYWNADTDLVSWLSPHDPNSVVTKSAKKLRSSNADAEEKLDRSHDKSDRGHDKSDRSHEKLDRGHDKSDRGHDKSDRDRERGYDKVDRERERDRERDRDRGYDKADREEGKERRHHRREELAPYPKSKKAVSRKDEELDPMDPSSYSDAPRGTWSTGLPKRNEAKTGADTTAAGPLFQQRPYPSPGAVLRANAEASRTKQQD |
| 46.2 | 54.7 | 73.3 | 11 | 445 | 6.34 | 76.9 | human PQBP1(1–94) including WWD (domain or fragment) MPLPVALQTRLAKRGILKHLEPEPEEEIIAEDYDDDPVDYEATRLEGLPPSWYKVFDPSCGLPYYWNADTDLVSWLSPHDPNSVVTKSAKKLRS |
